Measurements: patent US20180224459A1
Each block holds one substance with its values, some of them ahead of it.

What was measured:
[1] = target: BC2T-mSA2-myc displayed on E. coli as a fusion to OmpX; assay: flow cytometry, induced E. coli displaying BC2T-mSA2-myc; mean of triplicate
[2] = target: HA-mSA2-BC2T-myc fusion displayed on yeast at the C-terminus of Aga2 (yeast) (UniProt P32781); assay: flow cytometry, induced yeast displaying HA-mSA2-BC2T-myc; mean of triplicate
[3] = target: BC2T-mSA2-myc displayed on E. coli as a fusion to OmpX; assay: flow cytometry, induced E. coli displaying BC2T-mSA2-myc; co-treatment with Myc-ab-FITC; mean of triplicate
[4] = target: HA-mSA2-BC2T-myc fusion displayed on yeast at the C-terminus of Aga2 (yeast) (UniProt P32781); assay: flow cytometry, induced yeast displaying HA-mSA2-BC2T-myc; co-treatment with HA-ab-FITC; mean of triplicate
[5] = target: HA-mSA2-BC2T-myc fusion displayed on yeast at the C-terminus of Aga2 (yeast) (UniProt P32781); assay: flow cytometry, induced yeast displaying HA-mSA2-BC2T-myc; co-treatment with Myc-ab-FITC; mean of triplicate
[6] = target: Green Fluorescent Protein (GFP), biotinylated and immobilized on streptavidin coated plates [GFP: P42212]; assay: competition ELISA on immobilized GFP; 1:1 mixture with GFPnb-BC2T as competitor, against GFPnb-BC2T alone; BC2nb-nLuc read-out

Cy5 (+) [1]: 98.6%
Cy5 (+) [2]: 71.1%
Cy5 (+) [3]: 98.7%
Cy5 (+) [4]: 71.2%
Cy5 (+) [5]: 70.9%
Substance: BC2 nanobody-Cy5 conjugate (VHH)

FITC or GFP (+) [1]: 98.1%
FITC or GFP (+) [2]: 59.6%
Substance: BC2 nanobody-GFP fusion protein (from UniProt P42212 1-238) (VHH)

decrease in luminescence [6]: 50%
Substance: GFP-binding nanobody-His6 fusion protein (VHH)
